This passage reports FXa kcat/KM results from patent publication US20160024487.

The target of data set [1] is T1, Lys(Dnp)-ATNATAGPRIVGG-Lys(Abz).
T1 chain: KATNATAGPRIVGGK

Data set [2] deals with T2, Lys(Dnp)-ATNATATPRIVGG-Lys(Abz).
T2 chain: KATNATATPRIVGGK

The target in data set [3] is T3, Lys(Dnp)-ATNATFRPRIVGG-Lys(Abz).
T3 chain: KATNATFRPRIVGGK

In data set [4] the target is T4, Lys(Dnp)-ATNATIRPRIVGG-Lys(Abz).
T4 chain: KATNATIRPRIVGGK

The target in data set [5] is T5, Lys(Dnp)-ATNATIYPRIVGG-Lys(Abz).
T5 chain: KATNATIYPRIVGGK

Data set [6] has as its target T6, Lys(Dnp)-ATNATLHPRIVGG-Lys(Abz).
T6 chain: KATNATLHPRIVGGK

The target in data set [7] is T7, Lys(Dnp)-ATNATMIPRIVGG-Lys(Abz).
T7 chain: KATNATMIPRIVGGK

Data set [8] has as its target T8, Lys(Dnp)-ATNATMKPRIVGG-Lys(Abz).
T8 chain: KATNATMKPRIVGGK

The target in data set [9] is T9, Lys(Dnp)-ATNATPFPRIVGG-Lys(Abz).
T9 chain: KATNATPFPRIVGGK

The target of data set [10] is T10, Lys(Dnp)-ATNATRPPRIVGG-Lys(Abz).
T10 chain: KATNATRPPRIVGGK

Data set [11] concerns the target T11, Lys(Dnp)-ATNATVHPRIVGG-Lys(Abz).
T11 chain: KATNATVHPRIVGGK

Data set [12] addresses T12, Lys(Dnp)-ATNATVYPRIVGG-Lys(Abz).
T12 chain: KATNATVYPRIVGGK

For data set [13], the target named is T13, Lys(Dnp)-ATNATWAPRIVGG-Lys(Abz).
T13 chain: KATNATWAPRIVGGK

For data set [14], the target named is T14, Lys(Dnp)-ATNATWPPRIVGG-Lys(Abz).
T14 chain: KATNATWPPRIVGGK

In data set [15] the target is T15, Lys(Dnp)-ATNATYWPRIVGG-Lys(Abz).
T15 chain: KATNATYWPRIVGGK

Data set [16] addresses T16, Lys(Dnp)-ATNATDMPRIVGG-Lys(Abz).
T16 chain: KATNATDMPRIVGGK

The target in data set [17] is T17, Lys(Dnp)-ATNATDVPRIVGG-Lys(Abz).
T17 chain: KATNATDVPRIVGGK

For data set [18], the target named is T18, Lys(Dnp)-ATNATEIPRIVGG-Lys(Abz).
T18 chain: KATNATEIPRIVGGK

For data set [19], the target named is T19, Lys(Dnp)-ATNATEVPRIVGG-Lys(Abz).
T19 chain: KATNATEVPRIVGGK

Data set [20] concerns the target T20, Lys(Dnp)-ATNATFEPRIVGG-Lys(Abz).
T20 chain: KATNATFEPRIVGGK

Data set [21] deals with T21, Lys(Dnp)-ATNATFSPRIVGG-Lys(Abz).
T21 chain: KATNATFSPRIVGGK

For data set [22], the target named is T22, Lys(Dnp)-ATNATHEPRIVGG-Lys(Abz).
T22 chain: KATNATHEPRIVGGK

The target of data set [23] is T23, Lys(Dnp)-ATNATHHPRIVGG-Lys(Abz).
T23 chain: KATNATHHPRIVGGK

For data set [24], the target named is T24, Lys(Dnp)-ATNATIDPRIVGG-Lys(Abz).
T24 chain: KATNATIDPRIVGGK

The target in data set [25] is T25, Lys(Dnp)-ATNATINPRIVGG-Lys(Abz).
T25 chain: KATNATINPRIVGGK

Data set [26] has as its target T26, Lys(Dnp)-ATNATKNPRIVGG-Lys(Abz).
T26 chain: KATNATKNPRIVGGK

Data set [27] addresses T27, Lys(Dnp)-ATNATKRPRIVGG-Lys(Abz).
T27 chain: KATNATKRPRIVGGK

Data set [28] addresses T28, Lys(Dnp)-ATNATKWPRIVGG-Lys(Abz).
T28 chain: KATNATKWPRIVGGK

Data set [29] deals with T29, Lys(Dnp)-ATNATNLPRIVGG-Lys(Abz).
T29 chain: KATNATNLPRIVGGK

For data set [30], the target named is T30, Lys(Dnp)-ATNATPMPRIVGG-Lys(Abz).
T30 chain: KATNATPMPRIVGGK

For data set [31], the target named is T31, Lys(Dnp)-ATNATQEPRIVGG-Lys(Abz).
T31 chain: KATNATQEPRIVGGK

For data set [32], the target named is T32, Lys(Dnp)-ATNATQKPRIVGG-Lys(Abz).
T32 chain: KATNATQKPRIVGGK

The target of data set [33] is T33, Lys(Dnp)-ATNATQYPRIVGG-Lys(Abz).
T33 chain: KATNATQYPRIVGGK

The target of data set [34] is T34, Lys(Dnp)-ATNATRDPRIVGG-Lys(Abz).
T34 chain: KATNATRDPRIVGGK

The target in data set [35] is T35, Lys(Dnp)-ATNATSEPRIVGG-Lys(Abz).
T35 chain: KATNATSEPRIVGGK

In data set [36] the target is T36, Lys(Dnp)-ATNATSKPRIVGG-Lys(Abz).
T36 chain: KATNATSKPRIVGGK

The target in data set [37] is T37, Lys(Dnp)-ATNATTRPRIVGG-Lys(Abz).
T37 chain: KATNATTRPRIVGGK

For data set [38], the target named is T38, Lys(Dnp)-ATNATTTPRIVGG-Lys(Abz).
T38 chain: KATNATTTPRIVGGK

For data set [39], the target named is T39, Lys(Dnp)-ATNATWMPRIVGG-Lys(Abz).
T39 chain: KATNATWMPRIVGGK

Data set [40] addresses T40, Lys(Dnp)-ATNATYMPRIVGG-Lys(Abz).
T40 chain: KATNATYMPRIVGGK

Data set [41] concerns the target T41, Lys(Dnp)-ATNATYYPRIVGG-Lys(Abz).
T41 chain: KATNATYYPRIVGGK

B1: Human plasma purified Factor Xa (protein)
chain 1: ANSFLEEMKKGHLERECMEETCSYEEAREVFEDSDKTNEFWNKYKDGDQCETSPCQNQGKCKDGLGEYTCTCLEGFEGKNCELFTRKLCSLDNGDCDQFCHEEQNSVVCSCARGYTLADNGKACIPTGPYPCGKQTLER
chain 2: IVGGQECKDGECPWQALLINEENEGFCGGTILSEFYILTAAHCLYQAKRFKVRVGDRNTEQEEGGEAVHEVEVVIKHNRFTKETYDFDIAVLRLKTPITFRMNVAPACLPERDWAESTLMTQKTGIVSGFGRTHEKGRQSTRLKMLEVPYVDRNSCKLSSSFIITQNMFCAGYDTKQEDACQGDSGGPHVTRFKDTYFVTGIVSWGEGCARKGKYGIYTKVTAFLKWIDRSMKTRGLPKAKSHAPEVITSSPLK
As for B1, the FXa kcat/KM in data set [1] turned out to be 14 M⁻¹ s⁻¹; in data set [2], 330 M⁻¹ s⁻¹; in data set [3], 430 M⁻¹ s⁻¹; in data set [4] it was 760 M⁻¹ s⁻¹; in data set [5] it was 220 M⁻¹ s⁻¹; in data set [6], 540 M⁻¹ s⁻¹. The FXa kcat/KM in data set [7] is 220 M⁻¹ s⁻¹; in [8], 72 M⁻¹ s⁻¹; in [9], 69 M⁻¹ s⁻¹; in data set [10], 7 M⁻¹ s⁻¹; in data set [11] it was 67 M⁻¹ s⁻¹; in [12] it was 61 M⁻¹ s⁻¹. Also, the results for the FXa kcat/KM in [13], in [14] and in data set [15] were 42 M⁻¹ s⁻¹, 17 M⁻¹ s⁻¹ and 54 M⁻¹ s⁻¹, respectively.

B2: Human plasma purified Factor Xa (Molecular Innovations, Inc) (protein)
chain 1: ANSFLEEMKKGHLERECMEETCSYEEAREVFEDSDKTNEFWNKYKDGDQCETSPCQNQGKCKDGLGEYTCTCLEGFEGKNCELFTRKLCSLDNGDCDQFCHEEQNSVVCSCARGYTLADNGKACIPTGPYPCGKQTLER
chain 2: IVGGQECKDGECPWQALLINEENEGFCGGTILSEFYILTAAHCLYQAKRFKVRVGDRNTEQEEGGEAVHEVEVVIKHNRFTKETYDFDIAVLRLKTPITFRMNVAPACLPERDWAESTLMTQKTGIVSGFGRTHEKGRQSTRLKMLEVPYVDRNSCKLSSSFIITQNMFCAGYDTKQEDACQGDSGGPHVTRFKDTYFVTGIVSWGEGCARKGKYGIYTKVTAFLKWIDRSMKTRGLPKAKSHAPEVITSSPLK
Consider B2, for which the FXa kcat/KM in data set [16] is 11 M⁻¹ s⁻¹; in data set [17] it was 15 M⁻¹ s⁻¹; in data set [18] it was 55 M⁻¹ s⁻¹; in [19] it was 24 M⁻¹ s⁻¹; in data set [20] it was 140 M⁻¹ s⁻¹; in [21] it was 190 M⁻¹ s⁻¹. Also, the FXa kcat/KM in data set [22] is 96 M⁻¹ s⁻¹; in data set [23], 25 M⁻¹ s⁻¹; in data set [24], 1300 M⁻¹ s⁻¹; in [25], 870 M⁻¹ s⁻¹; in data set [26], 64 M⁻¹ s⁻¹; in [27], 91 M⁻¹ s⁻¹. Further, the FXa kcat/KM in [28] was 130 M⁻¹ s⁻¹; in [29] it was 110 M⁻¹ s⁻¹; in [30], 990 M⁻¹ s⁻¹; in data set [31], 920 M⁻¹ s⁻¹; in [32], 49 M⁻¹ s⁻¹; in data set [33], 200 M⁻¹ s⁻¹. For the same protein, the FXa kcat/KM came out at 1400 M⁻¹ s⁻¹ in data set [34]; 22 M⁻¹ s⁻¹ in data set [35]; 13 M⁻¹ s⁻¹ in data set [36]; 37 M⁻¹ s⁻¹ in data set [37]; 17 M⁻¹ s⁻¹ in data set [38]; 200 M⁻¹ s⁻¹ in data set [39]. The FXa kcat/KM in data set [40] worked out at 160 M⁻¹ s⁻¹; in data set [41] it was 48 M⁻¹ s⁻¹.
